Tests used:
[1] = biological target: the molecule itself; experiment: SAXS; solution scattering of the single protein, standard 50 mM Tris pH 7.5 buffer, 10°C, four concentrations 1.4-10.8 mg/ml; GadA stored in 100 mM Na-acetate, 10 mM NaCl, 1 mM DTT pH 4.6 and raised to pH 7.5 immediately before; oligomers from molecular mass, rigid-body modelling and OLIGOMER fits
[2] = biological target: the molecule itself; experiment: SEC + AUC; GadA at pH 7.5: Tris-HCl, 10 mM NaCl, 1 mM DTT pH 7.5; SEC on Superdex 200 10/300 GL, load 5 mg/ml; sedimentation velocity at 20°C, 0.4 mg/ml
[3] = biological target: the molecule itself; experiment: SEC + AUC; GadA at pH 4.6: 100 mM Na-acetate, 10 mM NaCl, 1 mM DTT pH 4.6; SEC on Superdex 200 10/300 GL, load 5 mg/ml; sedimentation velocity at 20°C, 0.4 mg/ml

B1: inorganic pyrophosphatase (PPase) from E. coli (enzyme)
chain: SLLNVPAGKDLPEDIYVVIEIPANADPIKYEIDKESGALFVDRFMSTAMFYPCNYGYINHTLSLDGDPVDVLVPTPYPLQPGSVIRCRPVGVLKMTDEAGEDAKLVAVPHSKLSKEYDHIKDVNDLPELLKAQIAHFFEHYKDLEKGKWVKVEGWENAEAAKAEIVASFERAKNK
notes: inorganic pyrophosphatase, E. coli; Hexamer in solution by SAXS
Question: For B1, which “stoichiometry N” value [1] is on record?
Answer: 6

B2: Class I fructose-1,6-bisphosphate aldolase (FbaB) from E. coli (enzyme, UniProt P0A991 1-350, looked up)
chain: MTDIAQLLGKDADNLLQHRCMTIPSDQLYLPGHDYVDRVMIDNNRPPAVLRNMQTLYNTGRLAGTGYLSILPVDQGVEHSAGASFAANPLYFDPKNIVELAIEAGCNCVASTYGVLASVSRRYAHRIPFLVKLNHNETLSYPNTYDQTLYASVEQAFNMGAVAVGATIYFGSEESRRQIEEISAAFERAHELGMVTVLWAYLRNSAFKKDGVDYHVSADLTGQANHLAATIGADIVKQKMAENNGGYKAINYGYTDDRVYSKLTSENPIDLVRYQLANCYMGRAGLINSGGAAGGETDLSDAVRTAVINKRAGGMGLILGRKAFKKSMADGVKLINAVQDVYLDSKITIA
notes: Class I fructose bisphosphate aldolase FbaB, E. coli, UniProt A0A037Y4V8; 350 amino acids, calculated monomer 38.1 kDa; Decamer in solution by SAXS; also called Class I Fba; copies: 10
Question: Which “stoichiometry N” value [1] does the source give for B2 here?
Answer: 10

B3: glutamate decarboxylase (GadA) from E. coli (enzyme)
chain: MDQKLLTDFRSELLDSRFGAKAISTIAESKRFPLHEMRDDVAFQIINDELYLDGNARQNLATFCQTWDDENVHKLMDLSINKNWIDKEEYPQSAAIDLRCVNMVADLWHAPAPKNGQAVGTNTIGSSEACMLGGMAMKWRWRKRMEAAGKPTDKPNLVCGPVQICWHKFARYWDVELREIPMRPGQLFMDPKRMIEACDENTIGVVPTFGVTYTGNYEFPQPLHDALDKFQADTGIDIDMHIDAASGGFLAPFVAPDIVWDFRLPRVKSISASGHKFGLAPLGCGWVIWRDEEALPQELVFNVDYLGGQIGTFAINFSRPAGQVIAQYYEFLRLGREGYTKVQNASYQVAAYLADEIAKLGPYEFICTGRPDEGIPAVCFKLKDGEDPGYTLYDLSERLRLRGWQVPAFTLGGEATDIVVMRIMCRRGFEMDFAELLLEDYKASLKYLSDHPKLQGIAQQNSFKHT
notes: glutamate decarboxylase GadA, E. coli; Hexamer at pH 4.6, mixture of hexamers and dimers at pH 7.5; also called GadA low-salt
Question: Which “stoichiometry N” value [2] does the source give for B3 here?
Answer: 2

Question: And the “stoichiometry N” value [3]?
Answer: 6

— paper PMC4881948, “X-Ray Solution Scattering Study of Four Escherichia coli Enzymes Involved in Stationary-Phase Metabolism” (PLoS ONE, 2016)
